Starred links: 1 amine or outer side, 2 acyl side, 3 side chain; linkers in the order of their positions; H or OH if unused. Non-standard residues stand in square brackets, D forms with d. Groups on a side chain read outwards from the residue. Primed or numbered codes have the meaning given here. No end group written: not given here. *: point of attachment. γGlu = O=C(O)[C@H](CCC(=O)[*:2])N[*:1]; Palmitoyl = CCCCCCCCCCCCCCCC(=O)*; αMeF = C[C@](N)(Cc1ccccc1)C(=O)O; αMeK = C[C@](N)(CCCCN)C(=O)O; Lauroyl = CCCCCCCCCCCC(=O)*; αMeS = C[C@](N)(CO)C(=O)O; PEG2′ = not defined here; Aib = CC(C)(N)C(=O)O
T1: glucose-dependent insulinotropic peptide (gastric inhibitory polypeptide) receptor (GIPR), primary cAMP assay (human, UniProt P48546 22-466)
T1 sequence (looked up): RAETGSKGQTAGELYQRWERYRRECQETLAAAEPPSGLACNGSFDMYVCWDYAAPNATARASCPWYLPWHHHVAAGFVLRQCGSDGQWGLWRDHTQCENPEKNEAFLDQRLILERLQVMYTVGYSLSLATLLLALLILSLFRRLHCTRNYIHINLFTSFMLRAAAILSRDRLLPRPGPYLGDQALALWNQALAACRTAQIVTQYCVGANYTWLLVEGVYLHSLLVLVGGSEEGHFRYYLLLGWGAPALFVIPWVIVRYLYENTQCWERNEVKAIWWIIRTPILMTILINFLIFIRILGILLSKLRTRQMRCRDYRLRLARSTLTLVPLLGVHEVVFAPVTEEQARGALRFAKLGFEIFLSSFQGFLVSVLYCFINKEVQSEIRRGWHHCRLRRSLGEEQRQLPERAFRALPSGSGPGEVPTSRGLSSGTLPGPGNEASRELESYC


target: glucagon receptor (GCGR), primary cAMP assay (human, UniProt P47871 26-477); test: cell-based or functional assay
Sequence (P47871 26-477): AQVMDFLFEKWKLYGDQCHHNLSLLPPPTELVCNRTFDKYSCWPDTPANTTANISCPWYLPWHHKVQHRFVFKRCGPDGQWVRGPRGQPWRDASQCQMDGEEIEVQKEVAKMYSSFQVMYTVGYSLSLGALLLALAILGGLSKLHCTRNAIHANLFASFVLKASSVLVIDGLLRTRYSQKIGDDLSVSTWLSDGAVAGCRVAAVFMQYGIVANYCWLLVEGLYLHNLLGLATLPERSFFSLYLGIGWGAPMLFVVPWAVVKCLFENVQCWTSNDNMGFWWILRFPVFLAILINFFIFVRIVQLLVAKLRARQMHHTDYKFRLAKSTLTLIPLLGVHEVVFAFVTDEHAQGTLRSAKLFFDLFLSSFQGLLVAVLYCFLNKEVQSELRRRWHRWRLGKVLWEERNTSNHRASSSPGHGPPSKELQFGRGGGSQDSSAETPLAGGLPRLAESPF

| Primary assay EC50 (cAMP), n1 [nM] | Primary assay EC50 (cAMP), n2 [nM] | Binder |
| --- | --- | --- |
| 21.9 | 21.9 | H[Aib]EGS[αMeF]TSDVSK([PEG2′-PEG2′-γGlu-Palmitoyl])YLEGEAA[αMeK]EFIAK([PEG2′-PEG2′-γGlu-Palmitoyl])VVEGG-NH2 [SEQ ID NO: 254] |
| 21.5 | 21.5 | H[Aib]EGS[αMeF]TSDVSK([PEG2′-PEG2′-γGlu-Palmitoyl])YLEGEAA[αMeK]EFIAWK([PEG2′-PEG2′-γGlu-Palmitoyl])VEGG-NH2 [SEQ ID NO: 255] |
| 21.6 | 21.6 | H[Aib]EGTFTSDVSK([PEG2′-PEG2′-γGlu-Palmitoyl])FLEGEAAEEFIK([PEG2′-PEG2′-γGlu-Palmitoyl])FVVEGG-NH2 [SEQ ID NO: 245] |
| 22.2 | 22.2 | H[Aib]EGS[αMeF]TSDV[αMeS]SK([PEG2′-PEG2′-γGlu-Palmitoyl])LEGEAA[αMeK]EFIAK([PEG2′-PEG2′-γGlu-Palmitoyl])VVEGG-NH2 [SEQ ID NO: 266] |
| 21.4 | 21.4 | H[Aib]EGTFTSDVSK([PEG2′-PEG2′-γGlu-Palmitoyl])YLEGEAAEEFIK([PEG2′-PEG2′-γGlu-Palmitoyl])WVVEGG-NH2 [SEQ ID NO: 242] |
| 22.3 | 22.3 | H[Aib]EGS[αMeF]TSDK([PEG2′-PEG2′-γGlu-Lauroyl])SSYLEGEAA[αMeK]EFIAWK([PEG2′-PEG2′-γGlu-Lauroyl])VEGG-NH2 [SEQ ID NO: 258] |
| 21.5 | 21.5 | H[Aib]EGTFTSDVSK([PEG2′-PEG2′-γGlu-Palmitoyl])FLEGEAAEEFIK([PEG2′-PEG2′-γGlu-Palmitoyl])WVVEGG-NH2 [SEQ ID NO: 243] |
| 23 | 23 | H[Aib]EGS[αMeF]TSDK([PEG2′-PEG2′-γGlu-Palmitoyl])SSYLEGEAA[αMeK]EFIAWK([PEG2′-PEG2′-γGlu-Palmitoyl])VEGG-NH2 [SEQ ID NO: 261] |

target: T1, glucose-dependent insulinotropic …; test: cell-based or functional assay

| Primary assay EC50 (cAMP), n1 [nM] | Primary assay EC50 (cAMP), n2 [nM] | Binder |
| --- | --- | --- |
| 21.9 | 21.9 | H[Aib]EGS[αMeF]TSDVSK([PEG2′-PEG2′-γGlu-Palmitoyl])YLEGEAA[αMeK]EFIAK([PEG2′-PEG2′-γGlu-Palmitoyl])VVEGG-NH2 [SEQ ID NO: 254] |
| 21.5 | 21.5 | H[Aib]EGS[αMeF]TSDVSK([PEG2′-PEG2′-γGlu-Palmitoyl])YLEGEAA[αMeK]EFIAWK([PEG2′-PEG2′-γGlu-Palmitoyl])VEGG-NH2 [SEQ ID NO: 255] |
| 21.6 | 21.6 | H[Aib]EGTFTSDVSK([PEG2′-PEG2′-γGlu-Palmitoyl])FLEGEAAEEFIK([PEG2′-PEG2′-γGlu-Palmitoyl])FVVEGG-NH2 [SEQ ID NO: 245] |
| 22.2 | 22.2 | H[Aib]EGS[αMeF]TSDV[αMeS]SK([PEG2′-PEG2′-γGlu-Palmitoyl])LEGEAA[αMeK]EFIAK([PEG2′-PEG2′-γGlu-Palmitoyl])VVEGG-NH2 [SEQ ID NO: 266] |
| 21.4 | 21.4 | H[Aib]EGTFTSDVSK([PEG2′-PEG2′-γGlu-Palmitoyl])YLEGEAAEEFIK([PEG2′-PEG2′-γGlu-Palmitoyl])WVVEGG-NH2 [SEQ ID NO: 242] |
| 22.3 | 22.3 | H[Aib]EGS[αMeF]TSDK([PEG2′-PEG2′-γGlu-Lauroyl])SSYLEGEAA[αMeK]EFIAWK([PEG2′-PEG2′-γGlu-Lauroyl])VEGG-NH2 [SEQ ID NO: 258] |
| 21.5 | 21.5 | H[Aib]EGTFTSDVSK([PEG2′-PEG2′-γGlu-Palmitoyl])FLEGEAAEEFIK([PEG2′-PEG2′-γGlu-Palmitoyl])WVVEGG-NH2 [SEQ ID NO: 243] |
| 23 | 23 | H[Aib]EGS[αMeF]TSDK([PEG2′-PEG2′-γGlu-Palmitoyl])SSYLEGEAA[αMeK]EFIAWK([PEG2′-PEG2′-γGlu-Palmitoyl])VEGG-NH2 [SEQ ID NO: 261] |

target: GLP-1 receptor (GLP-1R), primary cAMP assay (human, UniProt P43220 24-463); test: cell-based or functional assay

| Primary assay EC50 (cAMP) Mean [nM] | Primary assay EC50 (cAMP), n1 [nM] | Primary assay EC50 (cAMP), n2 [nM] | Binder |
| --- | --- | --- | --- |
| 0.205 | 0.223 | 0.186 | H[Aib]EGS[αMeF]TSDVSK([PEG2′-PEG2′-γGlu-Palmitoyl])YLEGEAA[αMeK]EFIAK([PEG2′-PEG2′-γGlu-Palmitoyl])VVEGG-NH2 [SEQ ID NO: 254] |
| 0.463 | 0.532 | 0.393 | H[Aib]EGS[αMeF]TSDVSK([PEG2′-PEG2′-γGlu-Palmitoyl])YLEGEAA[αMeK]EFIAWK([PEG2′-PEG2′-γGlu-Palmitoyl])VEGG-NH2 [SEQ ID NO: 255] |
| 11.2 | 12.3 | 10.2 | H[Aib]EGTFTSDVSK([PEG2′-PEG2′-γGlu-Palmitoyl])FLEGEAAEEFIK([PEG2′-PEG2′-γGlu-Palmitoyl])FVVEGG-NH2 [SEQ ID NO: 245] |
| 0.479 | 0.4 | 0.557 | H[Aib]EGS[αMeF]TSDV[αMeS]SK([PEG2′-PEG2′-γGlu-Palmitoyl])LEGEAA[αMeK]EFIAK([PEG2′-PEG2′-γGlu-Palmitoyl])VVEGG-NH2 [SEQ ID NO: 266] |
| 3.85 | 3.58 | 4.11 | H[Aib]EGTFTSDVSK([PEG2′-PEG2′-γGlu-Palmitoyl])YLEGEAAEEFIK([PEG2′-PEG2′-γGlu-Palmitoyl])WVVEGG-NH2 [SEQ ID NO: 242] |
| 0.0923 | 0.0596 | 0.125 | H[Aib]EGS[αMeF]TSDK([PEG2′-PEG2′-γGlu-Lauroyl])SSYLEGEAA[αMeK]EFIAWK([PEG2′-PEG2′-γGlu-Lauroyl])VEGG-NH2 [SEQ ID NO: 258] |
| 3.21 | 2.93 | 3.48 | H[Aib]EGTFTSDVSK([PEG2′-PEG2′-γGlu-Palmitoyl])FLEGEAAEEFIK([PEG2′-PEG2′-γGlu-Palmitoyl])WVVEGG-NH2 [SEQ ID NO: 243] |
| 0.418 | 0.414 | 0.422 | H[Aib]EGS[αMeF]TSDK([PEG2′-PEG2′-γGlu-Palmitoyl])SSYLEGEAA[αMeK]EFIAWK([PEG2′-PEG2′-γGlu-Palmitoyl])VEGG-NH2 [SEQ ID NO: 261] |
